B1: F1*; the commonest letter at each place (parent)
chain: GAGACCGCAACTGAAAAGTTGTTATCACTTGTCGTAAGACACTTTGGATGGGTTGAAGTTCTGCACGTAGAAGCAAAAGGC

Data on 34 variants can be found in the supplement of paper PMC6755084.

This data set covers variants of B1. Put plainly: fraction ligated after 30 min (ligated reads / total reads); higher = more ligase activity. The note with it: with F1*sub RNA substrate (template-directed ligation), 42 °C. The essentials:
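The ligase ribozyme variants were produced by PCR amplification of oligo-pool templates, T7 transcription and purification on gel. Their ligated and unligated forms were gel-separated, then reverse transcribed with barcoded primers before MiSeq sequencing. Core bases were filtered at a quality of ≥20, and fraction ligated per variant was ligated reads over total reads.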
For GAGACCGCAACTGAAAAGTTGTTATCACTTGGCGTAAGTCACTTTGGATGGGTTGAAGTTCTGCACGTAGAAGCAAAAGGC [T32G A39T], the fraction ligated worked out at 0.862.
As for GAGACCGCAACTGAAAAGTTGTTATCACTTGGCGTAAGCCACTTTGGATGGGTTGAAGTTCTGCACGTAGAAGCAAAAGGC [T32G A39C], the figure is 0.855; as for GAGACCGCAACTGAAAAGTTGTTATCACTTGGCGTAAGGCACTTTGGATGGGTTGAAGTTCTGCACGTAGAAGCAAAAGGC [T32G A39G], 0.819.
As for GAGACCGCAACTGAAAAGTTGTTATCACTTGGCGTAAGACACTTTGGTTGGGTTGAAGTTCTGCACGTAGAAGCAAAAGGC [T32G A48T], the figure is 0.143.
Regarding GAGACCGCAACTGAAAAGTTGTTATCACTTGGCGTAAGACACTTTGGCTGGGTTGAAGTTCTGCACGTAGAAGCAAAAGGC [T32G A48C], the fraction ligated turned out to be 0.401.
As for GAGACCGCAACTGAAAAGTTGTTATCACTTGGCGTAAGACACTTTGGGTGGGTTGAAGTTCTGCACGTAGAAGCAAAAGGC [T32G A48G], the figure is 0.75; as for GAGACCGCAACTGAAAAGTTGTTATCACTTGGCGTAGGACACTTTGGATGGGTTGAAGTTCTGCACGTAGAAGCAAAAGGC [T32G A37G], 0.842; as for GAGACCGCAACTGAAAAGTTGTTATCACTTGGCGTATGACACTTTGGATGGGTTGAAGTTCTGCACGTAGAAGCAAAAGGC [T32G A37T], 0.825.
As for GAGACCGCAACTGAAAAGTTGTTATCACTTGGCGTACGACACTTTGGATGGGTTGAAGTTCTGCACGTAGAAGCAAAAGGC [T32G A37C], the figure is 0.815; as for GAGACCGCAACTGAAAAGTTGTTATCACTTGGCGTAAGACACTATGGATGGGTTGAAGTTCTGCACGTAGAAGCAAAAGGC [T32G T44A], 0.807.
Consider GAGACCGCAACTGAAAAGTTGTTATCACTTGGCGTAAGACACTGTGGATGGGTTGAAGTTCTGCACGTAGAAGCAAAAGGC [T32G T44G], for which the fraction ligated amounted to 0.821.
As for GAGACCGCAACTGAAAAGTTGTTATCACTTGGCGTAAGACACTCTGGATGGGTTGAAGTTCTGCACGTAGAAGCAAAAGGC [T32G T44C], the figure is 0.795.
As for GAGACCGCAACTGAAAAGTTGTTATCACTTGTAGTAAGACACTTTGGATGGGTTGAAGTTCTGCACGTAGAAGCAAAAGGC [C33A], the figure is 0.869; as for GAGACCGCAACTGAAAAGTTGTTATCACTTGGCGTAAGACACTTTGGATAGGTTGAAGTTCTGCACGTAGAAGCAAAAGGC [T32G G50A], 0.179; as for GAGACCGCAACTGAAAAGTTGTTATCACTTGGCGTAAGACACTTTGGATTGGTTGAAGTTCTGCACGTAGAAGCAAAAGGC [T32G G50T], 0.384.
Then GAGACCGCAACTGAAAAGTTGTTATCACTTGGCGTAAGACACTTTGGATCGGTTGAAGTTCTGCACGTAGAAGCAAAAGGC [T32G G50C], with 0.0952.
In the case of GAGACCGCAACTGAAAAGTTGTTATCACTTGGCGTAAGACACTTTGGATGGGTTGACGTTCTGCACGTAGAAGCAAAAGGC [T32G A57C], the fraction ligated is 0.82.
For GAGACCGCAACTGAAAAGTTGTTATCACTTGGCGTAAGACACTTTGGATGGGTTGAGGTTCTGCACGTAGAAGCAAAAGGC [T32G A57G], the fraction ligated was determined as 0.844.
As for GAGACCGCAACTGAAAAGTTGTTATCACTTGGCGTAAGACACTTTGGATGGGTTGATGTTCTGCACGTAGAAGCAAAAGGC [T32G A57T], the figure is 0.814.
For GAGACCGCAACTGAAAAGTTGTTATCACTTGGCGTAAAACACTTTGGATGGGTTGAAGTTCTGCACGTAGAAGCAAAAGGC [T32G G38A], the fraction ligated was 0.822.
For GAGACCGCAACTGAAAAGTTGTTATCACTTGGCGTAACACACTTTGGATGGGTTGAAGTTCTGCACGTAGAAGCAAAAGGC [T32G G38C], the fraction ligated was determined as 0.798.
As for GAGACCGCAACTGAAAAGTTGTTATCACTTGGCGTAATACACTTTGGATGGGTTGAAGTTCTGCACGTAGAAGCAAAAGGC [T32G G38T], the fraction ligated was 0.799.
In the case of GAGACCGCAACTGAAAAGTTGTTATCACTTGGCGTAAGATACTTTGGATGGGTTGAAGTTCTGCACGTAGAAGCAAAAGGC [T32G C40T], the fraction ligated is 0.836.
With GAGACCGCAACTGAAAAGTTGTTATCACTTGGCGTAAGAAACTTTGGATGGGTTGAAGTTCTGCACGTAGAAGCAAAAGGC [T32G C40A], the fraction ligated was 0.825.
As to GAGACCGCAACTGAAAAGTTGTTATCACTTGGCGTAAGAGACTTTGGATGGGTTGAAGTTCTGCACGTAGAAGCAAAAGGC [T32G C40G], the fraction ligated stood at 0.813.
Regarding GAGACCGCAACTGAAAAGTTGTTATCACTTGGCGTAAGACACTTTGGAAGGGTTGAAGTTCTGCACGTAGAAGCAAAAGGC [T32G T49A], the fraction ligated came out at 0.56.
As to GAGACCGCAACTGAAAAGTTGTTATCACTTGGCGTAAGACACTTTGGACGGGTTGAAGTTCTGCACGTAGAAGCAAAAGGC [T32G T49C], the fraction ligated worked out at 0.246.
For the variant GAGACCGCAACTGAAAAGTTGTTATCACTTGGCGTAAGACACTTTGGAGGGGTTGAAGTTCTGCACGTAGAAGCAAAAGGC [T32G T49G], the fraction ligated was 0.669.
Consider GAGACCGCAACTGAAAAGTTGTTATCACTTGGCGTAAGACACTTTGGATGGGTTGCAGTTCTGCACGTAGAAGCAAAAGGC [T32G A56C], for which the fraction ligated worked out at 0.743.
As to GAGACCGCAACTGAAAAGTTGTTATCACTTGGCGTAAGACACTTTGGATGGGTTGGAGTTCTGCACGTAGAAGCAAAAGGC [T32G A56G], the fraction ligated amounted to 0.799.
Regarding GAGACCGCAACTGAAAAGTTGTTATCACTTGGCGTAAGACACTTTGGATGGGTTGTAGTTCTGCACGTAGAAGCAAAAGGC [T32G A56T], the fraction ligated is 0.785.
Consider GAGACCGCAACTGAAAAGTTGTTATCACTTGGCGTAAGACTCTTTGGATGGGTTGAAGTTCTGCACGTAGAAGCAAAAGGC [T32G A41T], for which the fraction ligated stood at 0.826.
As for GAGACCGCAACTGAAAAGTTGTTATCACTTGGCGTAAGACCCTTTGGATGGGTTGAAGTTCTGCACGTAGAAGCAAAAGGC [T32G A41C], the figure is 0.794; as for GAGACCGCAACTGAAAAGTTGTTATCACTTGGCGTAAGACGCTTTGGATGGGTTGAAGTTCTGCACGTAGAAGCAAAAGGC [T32G A41G], 0.754.
